Test results as given in the nanobody polyreactivity screen of Harvey et al. (2022).

Test: yeast display, Sf9 membrane polyspecificity reagent, FACS + sequencing; frameworks hold sequencing errors
Outline: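 A synthetic nanobody library was expressed on Saccharomyces cerevisiae BJ5465 by galactose induction for 36–48 hours. The library was stained for 1 hour at 4 °C with 10% biotinylated, detergent-solubilized Sf9 membrane reagent and enriched with streptavidin microbeads before FACS. Low and high (top ~1%) gates were set on anti-HA fluorescence for expression and streptavidin fluorescence for reagent binding, and each polyreactivity label reflects the gate of origin.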

Sequence	polyreactivity (PSR sort gate)
QVQLVESGGRLVQAGGSLRLSCAASGPIFAPYDMGWYRQAPGKERELVAAISRSGGSTYYADSVKGRFTISRDNAKNTVYLQMNSLKPEETPVYSCAAGLFVGFDYWGQGTQVTVTS	high polyreactivity
QVQLVESGGRLVQAGGSLRLSCAASGRIFAAYAMGWYRQAPGKEREFVAGITRTGGSTYYADSVKGRFTISRDHAKNTVYFQMNSLKPEDTAVYYCAASLVYYGHAYNYWGQGTQVTVSS	high polyreactivity
QVQLVESGGRLVQAGGSLRLSCAASGRIFVRYAMGWYRQAPGKERELVAAISTRGGSTYYADSVKGRFTISRDNAKNTVYLQMNSLNPEDTAVYYCAAGPRPRPTDYWGQGTQVTVSS	high polyreactivity
QVQLVESGGRLVQAGGSLRLSCAASGRIFWGYALGRYRQAHGKVSELVAAITRSGGRTYYADSVKGRFTISRDNAKNTVYLQMTSLKREDTAVYYCNAVNSLQPYKFDYWVQGTQVTVSS	high polyreactivity
QVQLVESGGRLVQAGGSLRLSCAASGRIILRNAMGWYRQAPGKERELVAAISSSGGRKYYADSVKGRFTISRDNAKNTVYLQMNSLKPEDTAVYYCNARWHGSFDYWGQGTQVTVSS	low polyreactivity
QVQLVESGGRLVQAGGSLRLSCAASGRTFYHNAMGWYRQAPGKERELVAVITWSGGSTYYADSVKGRFTISRDNAKNTVYLQMNSLKPEDTAVYYCATRRYGYERILYNYWGQGTQVTVSS	high polyreactivity
QVQLVESGGRLVQAGGSLRLSCAASGRTIYGNVMGWYRQAPGKERELVAVISWSSGSTSYADSVKGRFTISRDNAKNTVYLQMKSLKPEDTAVFYCAADSVTRPAGDYWGHGTQVTVSS	low polyreactivity
QVQLVESGGRLVQAGGSLRLSCAASGSIFALYAMGWYRQQPGKVRELVAAIRRGTSTKYADSVKGRFTISRDNAKNTVNLHMKSLKPEDTAVYYCNARYYYCSSISRWSDYWVQGTQVTVSS	high polyreactivity
QVQLVESGGRLVQAGGSLRLSCAASGSIFFSNAMGWYRQAPGKERELVAAITSTGGSTYYADSVKGRFTISRDNAKNTVYLQMNSLKPEDTAVYYCAAASRRGYYYWGQGTQVTVSS	high polyreactivity
QVQLVESGGRLVQAGGSLRLSCAASGSIFLKYAMRWYRQAPGKERELVAAISSAGRTYYADSVKGRFTISRDNAKKTVYLQMNSLKPEETAVSYCAARYPYDWRHDYWGQGTQVTVSS	low polyreactivity
QVQLVESGGRLVQAGGSLRLSCAASGSIFTPYAMGCYIQAPGKERELVAAIRSVVRTNYADSVKGRFTISRDNAKNTVYLQLNSLNPEDTAVYYCATAVYPDFEYDSWGQGTQVTVSS	low polyreactivity
QVQLVESGGRLVQAGGSLRLSCAASGSIFVKYAMGWYRPAPGKERELVAAISGSGGSTYYADSVKGRFTISRDNAKTTVYLEMNSLKPEDTAVYYCAADDYFYSGRYGFEFWGHGTQVTVSS	low polyreactivity
QVQLVESGGRLVQAGGSLRLSCAASGSIFYFNAMGWYRQAPGKERELVATISRRGGSTYYADSVKGRFTISRDNAKKTVYLQMNSLKPEDTAVYYCAADYYTLYPVYIKRYGYWGQGTQVTVSS	high polyreactivity
QVQLVESGGRLVQAGGSLRLSCAASGSIISWYAMGWYRQAPGKERELVAAISNSGGSTYYADSVKGRFTISRDNAKNTVYLQMNSLKPEDTAVYYCAAYDGDTYDWGQGTQVTVSS	high polyreactivity
QVQLVESGGRLVQAGGSLRLSCAASGSILYIYAMGWYRQAPGKERELVAAISKNSADTYYADSVKGRFTISRDNAKNTVYLQMNSLKPEDTAVYYCAADVVKVAAYNYWGQGTQVTVSS	low polyreactivity
QVQLVESGGRLVQAGGSLRLSCAASGSTFDNNAMGWYRQAPGKEREFVAAITYSGGGSTSYADSVKGRFTISRDNAKNTVYLQMNSLKAEDTAVYFCAARDFETDGYTLVAYIYWGQGSQVTVSS	low polyreactivity

Sequence	polyreactivity (PSR sort gate)
QVQLVESGGRLVQAGGSLRLSCAASGSTFGVNTKGWYRQAPGKEREFVAAITYGGGGTYYADSVKGRFTISRDNAKNTVYLQMNSLKPEDTAVYYCAARRAPKYYWGQGTQVTVSS	high polyreactivity
QVQLVESGGRLVQAGGSLRLSCAASGSTFHDYAMGWYTPAPGKERELVAAIYNSGGSTYYADSVKGRFSISLDNAQNTVYLQMNRLKPEDSAVYYWAADVSWYWYYEYWGQGTQVTLSS	low polyreactivity
QVQLVESGGRLVQAGGSLRLSCAASGSTFWYYAMGWYRQAPGKERELVASITYSGGSTYYADSVKGRFTISRDTAKNTVYLQMNSLKPEDTAVYYCAAEGYYSNYHYWGQGTQVTVSS	low polyreactivity
QVQLVESGGRLVQAGGSLRLSCAASGSTFYFYAMGWYRQEPGKERELVAAISFTDTSTYYADSVKARFTISRDNAKNNVYLQMNSLKPEDTAVYYCAADSDYWGQGTQVTVSS	high polyreactivity
QVQLVESGGRLVQAGGSLRLSCAASGYIFYPNVMGWYRQAPGKERELVAAISSSGGSTYYADSVKGRFTISRDNAKNTVYLQMNSLKPEDTAVYYCAARSLRYADYRSSYQKDMYYWGQGTQVTVSS	low polyreactivity
QVQLVESGGRLVQAGGSLRLSCAASGYIVTIYAMGWYRQAPGKEREFVAAITWSGGRTYYADSVKGRFTISRDNPKNTVYIQRNSLTPEDTAVYYCDARVANYLSQMYYWGQGTQVTVSS	high polyreactivity
QVQLVESGGRLVQAGGSLRLSCAPSGRTFGVYAMGWYRQAPGKERELVAVISSSSGSTYYADSVKGRFTISRDNAKNTVYLQMNSLKPEDTAVYYCAADFFYESFRDDYWGQGTQVTVSS	low polyreactivity
QVQLVESGGRLVQAGGSLRLSCASSGSTFVPNDMGLYRQAPGKERELVAAISRSGDDTYYADSVKGRFTISRDNAKNNVYLQMNSLKPVYTAVYYCAASAGYAYNYWGQGTQVTVSS	low polyreactivity
QVQLVESGGRLVQAGGSLRLSCDASGRTFYTNAMGWYRQEPGKEMELVAAISGRGSTYYADSVTGRFTISRDNAKNTVYLQMNSLKPEDTAVYYCAALLPGRSSSDYWGQGTQVTVSS	high polyreactivity
QVQLVESGGRLVQAGGSLRLSCSASGRICAYYAKGWYRQAPGKDRELVADSTYADSVKGRFTISRDNAKNTVYLQMKSLKPEYTAVYYCAVDYHFFLSRTYLPGSKYDFWGLGTQVTVSS	low polyreactivity
QVQLVESGGRLVQAGGSLRLSSAASGSTFVDYDMGWDRQAPGKERELVAAISGSGGRTYYADSVKGRFTISRDTAKNTVYLQLISVKPEDTAVYYCAAVNAGGELAYWGQGTQVTVSS	high polyreactivity
QVQLVESGGRLVQAGGSLRLSSAASGSTFYVYTMGWYRQAPGKEWELVAAISSGSSTNYADSVKGRFTISRDNAKNTVYLQMNSLQPEDTAVYYCAATRFSYVFPYRYDYWGQGTQVTVSS	low polyreactivity
QVQLVESGGRLVQAGGSLRRSCAASGSTFASNAMRWYRPAPGKERELVAAITSRDASTYYADSVKGRFTISRDNAKNTVYLQMNSLKPEDTAVYYCATDGYSPAAFDYWGQGTQVTVSS	low polyreactivity
QVQLVESGGRLVQAGGSRRLSCAASGSIFYRNAKRSYRQAPGKERELVAAISGRGGSTNYADSVKGRFTISRDNAKNTVYLQMNSLKPEDTAVYYCNRYGVSNILVRGGYWGQGTQVTVSS	high polyreactivity
QVQLVESGGRLVQAVGSLRLRCAAAGRTFPVYAMGWYRQAPGKERELVAAIRGRSVRKYYADSVKGRFTISRDYAKNTVYLQMNSLKPEDTAVYYCAAYYLNPGMDYWGQGTQVTVSS	high polyreactivity
QVQLVESGGRLVQAVGSLRLSCAASGFTSHKYAMGWYRQAPGKERELVAAITSSGGRTYYADSVKGRFTISRDNAKNTVYFQTNSLKPEDTAVYYCNKLGRVGDAREYWGQGTQVTVSS	high polyreactivity
